In assay [1] the target is primary human AML cells (CD47 on PBMCs of AML patient AML-PB003F) (human) (UniProt Q08722). In words: flow cytometry on primary AML cells (AML-PB003F); concentration not given. In general terms: Flow cytometry measures light scatter and fluorescence of single cells or particles in a stream.
Assay [2] shares this target.
The target in assay [3] is human red blood cells (CD47 on RBC) (human) (UniProt Q08722). The experiment in a line: flow cytometry on human RBCs, Donor 2, antibody 10 ug/mL.
For assay [4] the target is unchanged. The experiment in a line: flow cytometry on human RBCs, Donor 1, antibody 10 ug/mL.
For assay [5], the target named is human CD47 on Raji cells (human) (UniProt Q08722). In words: flow cytometry on Raji cells, APC anti-human Fc.
Assay [6] concerns the target Recombinant human CD47-Fc fusion protein (Acrobiosystems) (human) (UniProt Q08722). In words: blocking ELISA: SIRPa-His (1 ug/mL) binding to coated CD47-Fc, anti-His HRP.
Assay [7] addresses primary human AML cells (CD47 on PBMCs of AML patient AML-PB003F) (human) (UniProt Q08722). The source holds these as a separate data set.
Assay [8] has as its target human red blood cells (CD47 on RBC) (human) (UniProt Q08722). In words: flow cytometry on human RBCs, APC secondary antibody.
Assay [9] addresses Biotinylated CD47 protein (Acrobiosystems) (human) (UniProt Q08722). The experiment in a line: ELISA on coated biotinylated CD47 protein (1 ug/mL), anti-human Fc HRP.
Assay [10] has as its target Recombinant human CD47/mouse Fc fusion protein (Acrobiosystems) (human) (UniProt Q08722). In words: ELISA on coated CD47/mouse Fc fusion protein (1 ug/ml), anti-human Fc HRP.
For assay [11], the target named is human platelets (CD47 on CD61-positive platelets) (human) (UniProt Q08722). In words: flow cytometry on human whole blood, gated on CD61+ platelets, antibody 10 ug/mL.
Assay [12] concerns the target T1, Biotinylated CD47 protein (Acrobiosystems) (human, UniProt Q08722 19-139, biotinylated (site not stated)).
T1 construct: extracellular domain; Bought reagent; also called monomeric CD47-ECD; biotinylated human CD47-ECD protein
In words: ELISA on coated biotinylated CD47 protein (1 ug/mL), anti-human Fc HRP. How it is done: After coating of antigen, the wells were blocked with PBS/0.05% Tween (PBST) with 1% BSA for 1 hour at RT. […] Between all incubation steps, the wells of the plate were washed with PBST three times. Fluorescence was measured in a TECAN Spectrafluor plate reader.
A general note: ELISA stands for enzyme-linked immunosorbent assay.

The values that follow come from patent US20210095019A1 (I MAB, published 2021).

Like-named read-outs stand apart in the source and are kept apart here.

Molecule IgG (antibody) displayed an AML Binding (percent of cells in the gate) in assay [1] of 27.6%. Also, in assay [2], the phagocytosis: percent of CFSE+ AML cells among CD14+ macrophages was determined as 27%. Moreover, the Binding (percent of RBC in the gate) in assay [3] worked out at 0.018%; in assay [4], 0.079%.
Usually EC50 (read off the curve) stands for the midpoint of the concentration-response curve. In the case of “Reference antibody 2A1 (produced according to the sequence of CC-90002)”, the half-maximal effective concentration (EC50 (read off the curve)) in assay [5] came out at 0.1 µg/mL; in assay [8] it was 0.06 µg/mL; in assay [9] it was 0.03 µg/mL; in [10], 0.006 µg/mL. The AML Binding (percent of cells in the gate) in [1] was 75.1%. Further, in assay [6], the IC50 (read off the curve) amounted to 0.2 µg/mL. Also, the phagocytosis: percent of CFSE+ AML cells among CD14+ macrophages in assay [7] came out at 36.8%. Also, in assay [11], the Binding (percent of CD61+ platelets in the gate) was found to be 0.41%.

B1: CD47 antibody 1F8 (antibody, V domains shown)
VH: KVQLVESGGGLVKPGGSLRLSCAASGFTFSNAWMNWVRQAPGKGLEWVGRIKRKTDGETTDYAAPVKGRFSISRDDSKNTLYLQMNSLKTEDTAVYYCAGSNRAFDIWGQGTMVTVSA
VL: DIVMTQSPDSLAVSLGERATINCKSSQSVLYSSNNRNYLAWYQQKPGQPPKLLINQASTRASGVPDRFSGSGSGTEFTLIISSLHAEDVAIYYCQQYYTPPLAFGGGTKLEIK
As for B1, the 50% effective concentration (EC50 (read off the curve)) in assay [12] was approximately 0.008 µg/mL. The Binding (percent of RBC in the gate) in assay [3] turned out to be 0.076%; in assay [4], 0.065%. The molecule also registered a Binding (percent of CD61+ platelets in the gate) in assay [11] of 0.77%.
